Data taken from patent US20220177587A1, “METHODS AND USES OF VARIANT CD80 FUSION PROTEINS AND RELATED CONSTRUCTS” (Alpine Immune Sciences, Inc., priority 2018, published 2022).

Experiments:
human PD-L1 (human) [1] = target: human PD-L1 (human) (UniProt Q9NZQ7); experiment: flow cytometry, CHO cells expressing PD-L1
human CTLA-4 (human) [2] = target: human CTLA-4 (human) (UniProt P16410); experiment: flow cytometry, CHO cells expressing CTLA4
human PD-L1 (human) [3] = target: human PD-L1 (human) (UniProt Q9NZQ7); experiment: flow cytometry, MFI on PD-L1 over MFI on CD28
CD28 (human) [4] = target: CD28 (human) (UniProt P10747); experiment: flow cytometry, Jurkat cells (CD28)
human PD-L1 (human) [5] = target: human PD-L1 (human) (UniProt Q9NZQ7); experiment: flow cytometry, MFI on CHO/PD-L1 over MFI on Jurkat (CD28)
human PD-L1 (human) [6] = target: human PD-L1 (human) (UniProt Q9NZQ7); experiment: flow cytometry, CHO cells stably expressing PD-L1
human CTLA-4 (human) [7] = target: human CTLA-4 (human) (UniProt P16410); experiment: flow cytometry, CHO cells stably expressing CTLA4
CD28 (human) [8] = target: CD28 (human) (UniProt P10747)
human PD-L1 (human) [9] = target: human PD-L1 (human) (UniProt Q9NZQ7)
human CTLA-4 (human) [10] = target: human CTLA-4 (human) (UniProt P16410); experiment: flow cytometry, CHO/CTLA4 cells; MFI over CD80 WT IgV-Fc
CD28 (human) [11] = target: CD28 (human) (UniProt P10747); remark: listed apart in the source
human PD-L1 (human) [12] = target: human PD-L1 (human) (UniProt Q9NZQ7); remark: listed apart in the source
human PD-L1 (human) [13] = target: human PD-L1 (human) (UniProt Q9NZQ7); experiment: flow cytometry, CHO/PD-L1 cells; MFI over CD80 WT IgV-Fc
CD28 (human) [14] = target: CD28 (human) (UniProt P10747); experiment: flow cytometry, Jurkat cells (CD28); MFI over CD80 WT IgV-Fc

Chain of human PD-L1 (human) (Q9NZQ7 19-290): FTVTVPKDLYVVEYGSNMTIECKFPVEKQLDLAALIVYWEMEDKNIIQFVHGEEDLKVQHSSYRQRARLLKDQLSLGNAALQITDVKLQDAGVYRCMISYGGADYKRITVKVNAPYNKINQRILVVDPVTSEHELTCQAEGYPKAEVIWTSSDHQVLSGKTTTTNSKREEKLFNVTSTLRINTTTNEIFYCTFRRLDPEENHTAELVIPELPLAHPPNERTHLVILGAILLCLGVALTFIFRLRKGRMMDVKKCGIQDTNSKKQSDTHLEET
Chain of human CTLA-4 (human) (P16410 36-223): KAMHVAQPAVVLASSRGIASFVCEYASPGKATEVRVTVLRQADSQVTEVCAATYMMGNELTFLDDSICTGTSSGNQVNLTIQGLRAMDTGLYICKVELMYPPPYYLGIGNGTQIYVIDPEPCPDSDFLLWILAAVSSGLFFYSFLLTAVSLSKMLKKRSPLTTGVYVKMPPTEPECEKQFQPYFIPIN

Binder	Fold change to WT CD80 (human PD-L1 (human) [1]) [fold]	MFI at 33.3 nM (human PD-L1 (human) [1]) [MFI]	Fold change to WT CD80 (human CTLA-4 (human) [2]) [fold]	MFI at 33.3 nM (human CTLA-4 (human) [2]) [MFI]	Ratio of PDL1:CD28 (human PD-L1 (human) [3])	Fold change to WT CD80 (CD28 (human) [4]) [fold]	MFI at 33.3 nM (CD28 (human) [4]) [MFI]	Ratio of PDL1:CD28 (human PD-L1 (human) [5])	Fold change to WT (human PD-L1 (human) [6]) [fold]	MFI at 33.3 nM (human PD-L1 (human) [6]) [MFI]	Fold change to WT CD80 (human CTLA-4 (human) [7]) [fold]	MFI at 33.3 nM (human CTLA-4 (human) [7]) [MFI]	Fold change to WT (CD28 (human) [4]) [fold]	IL2-luciferase reporter (RLU), fold increase over WT CD80-IgV-Fc at 5.0 nM (CD28 (human) [8]) [fold]	IL2-luciferase reporter (RLU), fold increase over WT CD80-IgV-Fc at 5.0 nM (human PD-L1 (human) [9]) [fold]	Fold change to WT CD80 (human CTLA-4 (human) [10]) [fold]	IL2-luciferase reporter, fold increase in RLU over WT CD80-IgV-Fc at 5.0 nM (CD28 (human) [11]) [fold]	IL2-luciferase reporter, fold increase in RLU over WT CD80-IgV-Fc at 5.0 nM (human PD-L1 (human) [12]) [fold]	Fold change to WT CD80 (human PD-L1 (human) [13]) [fold]	Fold change to WT CD80 (CD28 (human) [14]) [fold]
CD80 H18Y/E35D/V68M/T79M/L85M IgV-Fc (Fc fusion) VIHVTKEVKEVATLSCGYNVSVEELAQTRIYWQKDKKMVLTMMSGDMNIWPEYKNRTIFDITNNLSIMILALRPSDEGMYECVVMKYEKDAFKREHLAEVTLSVKAD	290	14900	9.3	16300	14.3	33.2	1040													
CD80 IgV-Fc S15T/H18Y/E35D/M47V/T62A/N64S/A71G/L85Q/D90N (Fc fusion) VIHVTKEVKEVATLTCGYNVSVEELAQTRIYWQKDKKMVLTMMSGDVNIWPEYKNRTIFDIANSLSIVILGLRPSDEGTYECVVQKYEKNAFKREHLAEVTLSVKAD							1070	13	166	13900	10.7	11000	25.9							
CD80 H18Y/E35D/M47L/A71G/A91S IgV-Fc (Fc fusion) VIHVTKEVKEVATLSCGYNVSVEELAQTRIYWQKDKKMVLTMMSGDLNIWPEYKNRTIFDITNNLSIVILGLRPSDEGTYECVVLKYEKDSFKREHLAEVTLSVKAD														4.7	4.7					
CD80 T13R/Q33R/E35D/M47L/V68M/L85M IgV-Fc (Fc fusion) VIHVTKEVKEVARLSCGHNVSVEELAQTRIYWRKDKKMVLTMMSGDLNIWPEYKNRTIFDITNNLSIMILALRPSDEGTYECVVMKYEKDAFKREHLAEVTLSVKAD	368	18900	7.7	13400	169	3.6	112													
CD80 E35D/D46V/M47L/V68M/L85Q/E88D IgV-Fc, EAAAK linker (Fc fusion) VIHVTKEVKEVATLSCGHNVSVEELAQTRIYWQKDKKMVLTMMSGVLNIWPEYKNRTIFDITNNLSIMILALRPSDEGTYECVVQKYDKDAFKREHLAEVTLSVKADEAAAK							563			24800		29000				24.2	3.75	3.75	533	10.1
CD80 E35D/M47V/N48K/V68M/K89N IgV-Fc, (EAAAK)3 linker (Fc fusion) VIHVTKEVKEVATLSCGHNVSVEELAQTRIYWQKDKKMVLTMMSGDVKIWPEYKNRTIFDITNNLSIMILALRPSDEGTYECVVLKYENDAFKREHLAEVTLSVKADEAAAKEAAAKEAAAK							1280			24500		27100				22.6	4.52	4.52	525	23
CD80 E35D/D46V/M47L/V68M/L85Q/E88D IgV-Fc, (EAAAK)3 linker (Fc fusion) VIHVTKEVKEVATLSCGHNVSVEELAQTRIYWQKDKKMVLTMMSGVLNIWPEYKNRTIFDITNNLSIMILALRPSDEGTYECVVQKYDKDAFKREHLAEVTLSVKADEAAAKEAAAKEAAAK							197			25500		32000				26.8	5.25	5.25	546	3.5

Further lines, results first:

Fold change to WT CD80 (human PD-L1 (human) [1]) [fold]	MFI at 33.3 nM (human PD-L1 (human) [1]) [MFI]	Fold change to WT CD80 (human CTLA-4 (human) [2]) [fold]	MFI at 33.3 nM (human CTLA-4 (human) [2]) [MFI]	Ratio of PDL1:CD28 (human PD-L1 (human) [3])	Fold change to WT CD80 (CD28 (human) [4]) [fold]	MFI at 33.3 nM (CD28 (human) [4]) [MFI]	Ratio of PDL1:CD28 (human PD-L1 (human) [5])	Fold change to WT (human PD-L1 (human) [6]) [fold]	MFI at 33.3 nM (human PD-L1 (human) [6]) [MFI]	Fold change to WT CD80 (human CTLA-4 (human) [7]) [fold]	MFI at 33.3 nM (human CTLA-4 (human) [7]) [MFI]	Fold change to WT (CD28 (human) [4]) [fold]	IL2-luciferase reporter (RLU), fold increase over WT CD80-IgV-Fc at 5.0 nM (CD28 (human) [8]) [fold]	IL2-luciferase reporter (RLU), fold increase over WT CD80-IgV-Fc at 5.0 nM (human PD-L1 (human) [9]) [fold]	Fold change to WT CD80 (human CTLA-4 (human) [10]) [fold]	IL2-luciferase reporter, fold increase in RLU over WT CD80-IgV-Fc at 5.0 nM (CD28 (human) [11]) [fold]	IL2-luciferase reporter, fold increase in RLU over WT CD80-IgV-Fc at 5.0 nM (human PD-L1 (human) [12]) [fold]	Fold change to WT CD80 (human PD-L1 (human) [13]) [fold]	Fold change to WT CD80 (CD28 (human) [14]) [fold]	Binder
						1590	5	101	8460	10	10300	38.5								CD80 IgV-Fc H18Y/V22A/E35D/T41S/M47V/T62N/A71G/A91G (Fc fusion) VIHVTKEVKEVATLSCGYNVSAEELAQTRIYWQKDKKMVLSMMSGDVNIWPEYKNRTIFDINNNLSIVILGLRPSDEGTYECVVLKYEKDGFKREHLAEVTLSVKAD
						143			22400		26600				22.2	5.26	5.26	481	2.6	CD80 E35D/D46V/M47L/V68M/L85Q/E88D IgV-Fc, GS(G4S)5 linker (Fc fusion) VIHVTKEVKEVATLSCGHNVSVEELAQTRIYWQKDKKMVLTMMSGVLNIWPEYKNRTIFDITNNLSIMILALRPSDEGTYECVVQKYDKDAFKREHLAEVTLSVKADGSGGGGSGGGGSGGGGSGGGGSGGGGS
						2630			22900		27500				23	4.38	4.38	491	47.1	CD80 E35D/M47V/N48K/V68M/K89N IgV-Fc, EAAAK linker (Fc fusion) VIHVTKEVKEVATLSCGHNVSVEELAQTRIYWQKDKKMVLTMMSGDVKIWPEYKNRTIFDITNNLSIMILALRPSDEGTYECVVLKYENDAFKREHLAEVTLSVKADEAAAK
